From patent publication WO2020171171A1 (dated 2020)

Target: HLA-DR antigen expressed on human cells (L428, KM-H2, B cells of PBMC, other cancer cell lines, tumour tissue) (human)
Assay: cell-based or functional assay

B1: BP1206 chimeric antibody (human Fc chimeric recombinant antibody designed based on the antibody LN-3) (antibody, human IgG1, kappa, L234A L235A, V domains shown)
VH: QVHLKQSGPGLVQPSQSLSITCTVSGFSLTRFGVHWIRQSPGKSLEWLGVTWSGGTTVYNGAFISRLSITKDISKSQVFFKMNSLQVDDTGIYYCARAYYAMDYWGQGTSVTVSS
VL: DVQMTQSPSYLAASPGETITIHCRASESIGKYLAWYQKKPGRSNRLLIYSGSTLQSGIPSRFSGSGSGTDFTLTVSSLEPEDFAMYYCQHHNDYPWTFGGGTKVEIKR
decrease in abundance of B cells (CD19 positive cells) among live PBMC, relative to isotype control (1 μg/ml antibody, 2 h, flow cytometry): ~60%
